Substitutions are numbered along the chain they refer to.
Tests used:
[1] = target: TT3 antigen (ELISA coating antigen); assay: ELISA, plate-coated TT3 antigen
Experimental: The activity of the prepared humanized antibodies was assessed by ELISA as follows: The TT3 antigen was diluted to 0.5 g/mL using a coating solution and added to a 96-well plate at 100 L/well, and the plate was incubated overnight at 4° C. The plate was washed with PBST. Then 200 μL of an antibody blocking solution was added to each well, and blocking was performed at 37° C. for 2 h. The plate was washed with PBST. Different antibodies (initial concentration: 100 nM; serially diluted in a 1:6 ratio) were added at 100 L/well, and the plate was incubated at 37° C. for 2 h. The plate was washed with PBST. An HRP-bound goat anti-human/mouse IgG antibody was added at 100 μL/well, and the plate was incubated at 37° C. for 1 h. The plate was washed with PBST, and TMB was added at 100 L/well. Color development was performed at 37° C. for 10-20 min, and 50 µL of 2 M sulfuric acid was added to each well to stop the reaction. OD readings were taken at a wavelength of 450 nm.

[2] = target: TT3 labeling polypeptide on cells; assay: flow cytometry on MC38-TT3 cells
[3] = target: TT3 labeling polypeptide on cells; assay: flow cytometry on HCT116-TT3 cells
[4] = target: TT3 labeling polypeptide on cells; assay: flow cytometry on SK-HEP-1-TT3 cells
[5] = target: TT3 labeling polypeptide on cells; assay: flow cytometry (as for Table 1)
[6] = target: T1, CD3 on Jurkat cells and on human T cells (human, UniProt P07766 23-207); assay: flow cytometry on Jurkat cells
T1 construct: whole, on cells; also called CD3 end; CD3 antigen
Experimental: Jurkat cells were plated, washed with a FACS buffer, and centrifuged at 1200 rpm for 3-5 min. Then diluted antibodies with different concentrations were added at 100 L/well. The cells were incubated at 4° C. for 0.5 h, centrifuged at 1200 rpm for 3-5 min, and washed with a FACS buffer. Then a diluted goat anti-human IgG (FITC, Abcam/ab97224) antibody was added. The cells were incubated at 4° C. for 0.5 h, centrifuged at 1200 rpm for 3-5 min, washed with a FACS buffer, and resuspended in 50 μL of a FACs buffer, and assays were performed using a flow cytometer.

[7] = target: TT3 labeling polypeptide on cells; assay: flow cytometry on HCT116-TT3 cells; remark: listed apart in the source

T1 sequence (P07766 23-207): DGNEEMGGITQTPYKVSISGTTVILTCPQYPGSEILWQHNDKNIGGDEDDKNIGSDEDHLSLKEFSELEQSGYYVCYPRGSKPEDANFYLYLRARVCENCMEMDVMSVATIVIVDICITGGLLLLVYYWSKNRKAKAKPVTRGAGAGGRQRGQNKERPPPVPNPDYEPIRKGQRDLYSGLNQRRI
Sequence of TT3 labeling polypeptide on cells (P01732 other isoform, or with tags, fused parts or gaps limits assumed): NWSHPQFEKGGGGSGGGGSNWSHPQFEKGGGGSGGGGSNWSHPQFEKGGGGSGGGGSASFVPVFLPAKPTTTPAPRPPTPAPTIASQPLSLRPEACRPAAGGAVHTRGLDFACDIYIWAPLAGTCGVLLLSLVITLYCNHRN

B1: TT3 Ab-2 (antibody, human IgG1, kappa, V domains shown)
VH: QVQLVQSGAEVKKPGASVKVSCKASGYTFTNYYMKWVKQAPGQSLEWIGDLNPNNGDTFYNQKFKGRVTITVDKSASTAYMELNSLRSEDTAVYYCARTGRYEENAMDYWGQGTLVTVSS
VL: DLVMTQSPASLAVSPGQRATITCRASESVDSYGKSFMHWYQQKPGQPPKLLIYRASNLESGVPARFSGSGSRTDFTLTINPVEANDTANYYCQQNNEDPWTFGQGTKLEIKR
notes: also called humanized anti-TT3 monoclonal antibody
EC50 [1]: 0.0105 nM | EC50 [2]: 2.33 nM | EC50 [3]: 0.958 nM | EC50 [4]: 1.53 nM

B2: TT3 Ab-3 (antibody, human IgG1, kappa)
heavy: not shown
light: DLVMTQSPASLAVSPGQRATITCRASESVDSYGKSFMHWYQLKPGQPPKLLIYRASNLESGVPARFSGSGSRTDFTLTINPVEANDTANYYCQQNNEDPWTFGQGTKLEIKRTVAAPSVFIFPPSDEQLKSGTASVVCLLNNFYPREAKVQWKVDNALQSGNSQESVTEQDSKDSTYSLSSTLTLSKADYEKHKVYACEVTHQGLSSPVTKSFNRGEC
notes: as for B1
EC50 [1]: 0.014 nM | EC50 [2]: 0.588 nM | EC50 [3]: 0.692 nM | EC50 [4]: 0.738 nM

B3: TT3 Ab-1 (antibody, human IgG1, kappa, V domains shown)
VH: B1 VH with S44R, I48M, N84S
VL: B1 VL with L2I, M4L
notes: as for B1
EC50 [1]: 0.0104 nM | EC50 [2]: 1.2 nM | EC50 [3]: 0.568 nM | EC50 [4]: 0.546 nM

B4: BK-B-110 (bispecific antibody)
chain: ELVMTQSPASLAVSLGQRATISCRASESVDSYGKSFMHWYQLKPGQPPKLLIYRASNLESGVPARFSGSGSRTDFTLTIDPVEADDAATYYCQQNNEDPWTFGGGTKLEIKGSTSGSGKPGSGEGSTKGEVQLEQSGPELVKPGASVKMSCKASGYTFTNYYMKWVKQSHGKSLEWIGDLNPNNGDTFYNQKFKGKATLTVDKSSNTAYMQLNSLTSEDSAVYYCARTGRYEENAMDYWGQGTSVTVSSPCPAPEFEGGPSVFLFPPKPKDTLMISRTPEVTCVVVDVSHEDPEVKFNWYVDGVEVHNAKTKPREEQYNSTYRVVSVLTVLHQDWLNGKEYKCKVSNKALPASIEKTISKAKGQPREPQVYTLPPSREEMTKNQVSLTCLVKGFYPSDIAVEWESNGQPENNYKTTPPVLDSDGSFFLYSKLTVDKSRWQQGNVFSCSVMHEALHNHYTQKSLSLSPGKGGGGSGGGGSGGGGSQAVVTQESALTTSPGETVTLTCRSSTGAVTTSNYANWVQEKPDHLFTGLIGGTNKRAPGVPARFSGSLIGDKAALTITGAQTEDEAIYFCALWYSNLWVFGGGTKLTVLGGGGSGGGGSGGGGSEVKLLESGGGLVQPKGSLKLSCAASGFTFNTYAMNWVRQAPGKGLEWVARIRSKYNNYATYYADSVKDRFTISRDDSQSILYLQMNNLKTEDTAMYYCVRHGNFGNSYVSWFAYWGQGTLVTVSA
binding result [5]: binds

B5: Ab-TT3 (antibody, V domains shown)
VH: EVQLEQSGPELVKPGASVKMSCKASGYTFTNYYMKWVKQSHGKSLEWIGDLNPNNGDTFYNQKFKGKATLTVDKSSNTAYMQLNSLTSEDSAVYYCARTGRYEENAMDYWGQGTSVTVSS
VL: ELVMTQSPASLAVSLGQRATISCRASESVDSYGKSFMHWYQLKPGQPPKLLIYRASNLESGVPARFSGSGSRTDFTLTIDPVEADDAATYYCQQNNEDPWTFGGGTKLEIK
notes: also called anti-Strep tag II antibody before humanization
EC50 [1]: 0.0878 nM

B6: BK-B-110-hu2 (bispecific antibody)
chain: ELVMTQSPASLAVSLGQRATISCRASESVDSYGKSFMHWYQLKPGQPPKLLIYRASNLESGVPARFSGSGSRTDFTLTIDPVEADDAATYYCQQNNEDPWTFGGGTKLEIKGSTSGSGKPGSGEGSTKGEVQLEQSGPELVKPGASVKMSCKASGYTFTNYYMKWVKQSHGKSLEWIGDLNPNNGDTFYNQKFKGKATLTVDKSSNTAYMQLNSLTSEDSAVYYCARTGRYEENAMDYWGQGTSVTVSSPCPAPEFEGGPSVFLFPPKPKDTLMISRTPEVTCVVVDVSHEDPEVKFNWYVDGVEVHNAKTKPREEQYNSTYRVVSVLTVLHQDWLNGKEYKCKVSNKALPASIEKTISKAKGQPREPQVYTLPPSREEMTKNQVSLTCLVKGFYPSDIAVEWESNGQPENNYKTTPPVLDSDGSFFLYSKLTVDKSRWQQGNVFSCSVMHEALHNHYTQKSLSLSPGKGGGGSGGGGSGGGGSQAVVTQEPSLTVSPGGTVTLTCRSSTGAVTTSNYANWVQQKPGQAPRTLIGGTNKRAPWVPARFSGSLLGDKAALTLSGAQPEDEAEYYCALWYSNLWVFGGGTKLTVLGGGGSGGGGSGGGGSEVQLVESGGGLVQPGGSLRLSCAASGFTFNTYAMNWVRQAPGKGLEWVARIRSKYNNYATYYADSVKDRFTISRDDSKNILYLQMNSLKTEDTAVYYCVRHGNFGNSYVSWFAYWGQGTLVTVSA
binding result [5]: binds

B7: BK-B-110-hu1 (bispecific antibody)
chain: B6 chain with V544T, D555G
binding result [5]: binds

B8: BK-B-110-hu6 (bispecific antibody)
chain: B6 chain with Q524E, V703M
binding result [5]: binds

B9: BK-B-110-hu4 (bispecific antibody)
chain: B6 chain with V544T, D555G, V703M
binding result [5]: binds

B10: BK-B-110-hu3 (bispecific antibody)
chain: B6 chain with Q524E
binding result [5]: binds

B11: BK-B-110-hu5 (bispecific antibody)
chain: B6 chain with V703M
binding result [5]: binds

B12: BK-D-07 (bispecific antibody, human IgG1, kappa)
heavy: QVQLVQSGAEVKKPGASVKVSCKASGYTFTNYYMKWVKQAPGQSLEWIGDLNPNNGDTFYNQKFKGKATLTVDKSASTAYMELNSLRSEDTAVYYCARTGRYEENAMDYWGQGTLVTVSSASTKGPSVFPLAPSSKSTSGGTAALGCLVKDYFPEPVTVSWNSGALTSGVHTFPAVLQSSGLYSLSSVVTVPSSSLGTQTYICNVNHKPSNTKVDKRVEPKSCDKTHTCPPCPAPEFEGGPSVFLFPPKPKDTLMISRTPEVTCVVVDVSHEDPEVKFNWYVDGVEVHNAKTKPREEQYNSTYRVVSVLTVLHQDWLNGKEYKCKVSNKALPASIEKTISKAKGQPREPQVYTLPPSREEMTKNQVSLTCLVKGFYPSDIAVEWESNGQPENNYKTTPPVLDSDGSFFLYSKLTVDKSRWQQGNVFSCSVMHEALHNHYTQKSLSLSPGKGGGGSGGGGSGGGGSQAVVTQEPSLTVSPGGTVTLTCRSSTGAVTTSNYANWVQQKPGQAPRGLIGGTNKRAPWTPARFSGSLLGGKAALTLSGAQPEDEAEYYCALWYSNLWVFGGGTKLTVLGGGGSGGGGSGGGGSEVQLVESGGGLVQPGGSLRLSCAASGFTFNTYAMNWVRQAPGKGLEWVARIRSKYNNYATYYADSVKDRFTISRDDSKNILYLQMNSLKTEDTAMYYCVRHGNFGNSYVSWFAYWGQGTLVTVSA
light: B2 light with L2I, M4L, L42Q
EC50 [6]: 49.4 nM | EC50 [7]: 0.127 nM

B13: BK-D-10 (bispecific antibody, human IgG1, kappa)
heavy: B12 heavy with I669S, M684V
light: B2 light
EC50 [6]: 143 nM | EC50 [7]: 0.248 nM

B14: BK-D-12 (bispecific antibody, human IgG1, kappa)
heavy: B12 heavy with S44R, I48M, K67R, A68V, L70I, N84S
light: B2 light
EC50 [6]: 80.6 nM | EC50 [7]: 0.523 nM

B15: BK-D-11 (bispecific antibody, human IgG1, kappa)
heavy: B12 heavy with S44R, I48M, K67R, A68V, L70I, N84S, I669S, M684V
light: B2 light with L2I, M4L, L42Q
EC50 [6]: 169 nM | EC50 [7]: 0.336 nM
